Patent publication US7361735B2, “LITAF binding site peptides and methods of using the same” (Trustees of Boston University, priority 2003, dated 2008)

Tested on: wtTNFβ, TNF-α promoter from −991 to 1
Assay: Luciferase reporter assay, wild-type TNF-α promoter, WTK-1
Type: cell-based
Conditions: WTK-1 cells; normalized to β-gal; LITAF overexpressed alone without LPS stimulation
Text: FIG. 10 is a graphical representation of the analysis of LITAF function in luciferase reporter constructs. The series of TNF-α promoter DNA fragments were subcloned into the pGL3 basic vector (Pharmacia), a promoterless and enhancerless luciferase reporter gene. One construct, named wtTNFβ, contained TNF-α promoter from −991 to 1. Another one, mtTNFβ1, was a mutant inserted with the promoter from −991 to 1, but lacking the LITAF binding site. WTK-1 cells (grown to 85% confluence) in a 6-well plate at 1.2×10^5 cells/well were co-transfected with 1 μg DNAs including pCMV-LITAF recombinant vector, pVMVβ-gal and pGL3 basic as control by Fugene 6 (Roche Molecular Biochemicals) for 3 hrs, washed with PBS twice, then individually stimulated with LPS or Chariot/peptide complex of 100 ng/ml peptide B (peptide fragment of LITAF representing aa 152-228) or HA as control for 3 hrs, washed with PBS, incubated at 37° C., 5% CO2, o/n. The β-galactosidase gene was included in all transfections. The cells were harvested and lysed approximately 12 hrs after transfection. The promoter activity from each lysate sample was measured using the luciferase reporter assay system (Promega) and normalized to β-gal expression in the same sample, as described in the methods section below.
The activation of TNF-α gene expression by LITAF was investigated. […]

- TNF-α promoter activity (luciferase), wild-type promoter/reporter plasmid: 2.5 fold
B1: exogenous LITAF: full-length human LITAF (SEQ ID NO. 1) overexpressed from the pCMV-LITAF recombinant vector (protein, listed as Homo sapiens)
chain: MSVPGPYQAATGPSSAPSAPPSYEETVAVNSYYPTPPAPMPGPTTGLVTGPDGKGMNPPSYYTQPAPIPNNNPITVQTVYVQHPITFLDRPIQMCCPSCNKMIVSQLSYNAGALTWLSCGSLCLLGVHSGLLLHPLLRGCPAGRGPLLSQLQSSPGHLQAFVGLSQTWREPGAAGSPFHLSSSFTPGGGSALVVSPLQGAHLHVFFWGEYVAKLTNLQTPEIAAWSRA
